In patent US20260167721A1 (ABLEXIS, published 2026):
Changes are numbered by the printed parent chain.

Assays:
[1] = biological target: T1, recombinant human CD3 epsilon/delta heterodimer (human, UniProt P07766 23-126; P04234 22-105); assay: Octet BLI, mAb on FAB2G sensor, hCD3 E/D 200-50 nM; R^2 0.94
T1 construct: Recombinant protein in solution (200-50 nM) in the Octet assay; also called hCD3 E/D; human CD3E/D

[2] = biological target: T2, recombinant human CD3 epsilon/gamma heterodimer (human, UniProt P07766 23-126; P09693 23-116); assay: Octet BLI, mAb on FAB2G sensor, hCD3 E/G 200-50 nM; R^2 0.94
T2 construct: Recombinant protein in solution (200-50 nM) in the Octet assay; also called hCD3 E/G
T2 sequence (P07766 23-126, chain 1 of 2): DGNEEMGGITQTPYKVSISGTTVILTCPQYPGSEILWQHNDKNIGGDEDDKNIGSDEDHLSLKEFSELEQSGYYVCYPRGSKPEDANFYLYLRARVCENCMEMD
T2 sequence (P09693 23-116, chain 2 of 2): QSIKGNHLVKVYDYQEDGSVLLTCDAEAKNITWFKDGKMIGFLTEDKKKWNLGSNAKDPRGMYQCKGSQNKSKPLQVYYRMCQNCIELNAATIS

[3] = biological target: T1, recombinant human CD3 epsilon/delta …; assay: Octet BLI, mAb on FAB2G sensor, hCD3 E/D 200-50 nM; R^2 0.96
[4] = biological target: T2, recombinant human CD3 epsilon/gamma …; assay: Octet BLI, mAb on FAB2G sensor, hCD3 E/G 200-50 nM; R^2 0.96
[5] = biological target: CD3 on effector cells (human Pan-T or PBMC) (human, UniProt P07766 23-207; P04234 22-171; P09693 23-182; P20963 22-164); assay: cell-based or functional assay
CD3 on effector cells (human Pan-T or PBMC), sequence (P07766 23-207, chain 1 of 4): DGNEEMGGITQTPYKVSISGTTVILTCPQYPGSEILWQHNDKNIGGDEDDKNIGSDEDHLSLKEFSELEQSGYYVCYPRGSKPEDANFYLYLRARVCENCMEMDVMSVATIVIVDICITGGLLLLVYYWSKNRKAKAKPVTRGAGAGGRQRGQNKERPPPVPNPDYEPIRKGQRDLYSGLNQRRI
CD3 on effector cells (human Pan-T or PBMC), sequence (P04234 22-171, chain 2 of 4): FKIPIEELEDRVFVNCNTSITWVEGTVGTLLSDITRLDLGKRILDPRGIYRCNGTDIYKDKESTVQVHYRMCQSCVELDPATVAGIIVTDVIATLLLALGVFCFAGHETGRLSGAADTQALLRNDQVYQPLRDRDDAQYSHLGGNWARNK
CD3 on effector cells (human Pan-T or PBMC), sequence (P09693 23-182, chain 3 of 4): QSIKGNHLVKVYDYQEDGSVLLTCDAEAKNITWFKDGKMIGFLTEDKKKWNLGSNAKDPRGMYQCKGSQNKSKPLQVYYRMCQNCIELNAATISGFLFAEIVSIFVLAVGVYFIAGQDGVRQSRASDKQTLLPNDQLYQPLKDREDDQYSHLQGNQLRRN
CD3 on effector cells (human Pan-T or PBMC), sequence (P20963 22-164, chain 4 of 4): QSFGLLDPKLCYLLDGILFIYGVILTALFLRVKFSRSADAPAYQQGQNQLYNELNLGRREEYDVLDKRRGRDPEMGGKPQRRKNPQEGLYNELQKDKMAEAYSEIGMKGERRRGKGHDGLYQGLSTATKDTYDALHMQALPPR

recombinant CD3 proteins [6] = assay: Octet (BLI), bispecific antibody against recombinant CD3 proteins
recombinant CD3 proteins [7] = biological target: T3, recombinant CD3 proteins (UniProt P07766 23-126); assay: Octet BLI, recombinant CD3; Full R^2 0.000*
T3 construct: elsewhere it uses human CD3 E/D and E/G heterodimers
T3 sequence (P07766 23-126): as the sequence (P07766 23-126, chain 1 of 2) above

recombinant CD3 proteins [8] = biological target: T3, recombinant CD3 proteins; assay: Octet BLI, recombinant CD3; Full R^2 0.997
recombinant CD3 proteins [9] = biological target: T3, recombinant CD3 proteins; assay: Octet BLI, recombinant CD3; Full R^2 0.9882
[10] = biological target: T4, human CD3 (TCR/CD3 complex) on the cell surface (human, UniProt P07766 23-207; P09693 23-182; P04234 22-171; P20963 22-164); assay: flow cytometry, Pan-T cells, 1 ug/mL
T4 construct: whole, on cells; also called CD3 on Pan-T cells; CD3 on Jurkat WT cells
T4 sequence (P07766 23-207, chain 1 of 4): as the sequence (P07766 23-207, chain 1 of 4) above
T4 sequence (P09693 23-182, chain 2 of 4): as the sequence (P09693 23-182, chain 3 of 4) above
T4 sequence (P04234 22-171, chain 3 of 4): as the sequence (P04234 22-171, chain 2 of 4) above
T4 sequence (P20963 22-164, chain 4 of 4): as the sequence (P20963 22-164, chain 4 of 4) above

[11] = biological target: T4, human CD3 (TCR/CD3 complex) on the cell …; assay: flow cytometry, Jurkat WT cells, 1 ug/mL
[12] = biological target: T4, human CD3 (TCR/CD3 complex) on the cell …; assay: flow cytometry, Jurkat WT cells, 10 ug/mL
[13] = biological target: T4, human CD3 (TCR/CD3 complex) on the cell …; assay: flow cytometry, gMFI Jurkat WT over Jurkat TCRb KO, 1 ug/mL
recombinant CD3 proteins [14] = biological target: T3, recombinant CD3 proteins; assay: Octet BLI, recombinant CD3; Full R^2 0.995
[15] = biological target: T4, human CD3 (TCR/CD3 complex) on the cell …; assay: flow cytometry, Pan-T cells, 10 ug/mL
[16] = biological target: T4, human CD3 (TCR/CD3 complex) on the cell …; assay: flow cytometry, gMFI Jurkat WT over Jurkat TCRb KO, 10 ug/mL

T1 sequence (P07766 23-126, stated change not applied, chain 1 of 2): as the sequence (P07766 23-126, chain 1 of 2) above
T1 sequence (P04234 22-105, stated change not applied, chain 2 of 2): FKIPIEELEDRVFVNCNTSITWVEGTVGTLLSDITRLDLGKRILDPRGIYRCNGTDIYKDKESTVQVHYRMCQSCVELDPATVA

B1: ABL-CD3-29 (antibody, V domains shown)
VH: EVQLVQSGAEVKKPGESLKISCKGSGYSFISYWIAWVRQMPGKGLEWMGIIYPGDSETRYRPSFQGQVTISADKSINTAYLQWSSLKAADTAMYYCARQGAYDGFDIWGQGTMVTVSS
VL: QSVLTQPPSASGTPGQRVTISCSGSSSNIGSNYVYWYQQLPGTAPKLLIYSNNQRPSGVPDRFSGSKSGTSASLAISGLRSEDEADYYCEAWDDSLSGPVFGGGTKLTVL
notes: Chimeric hybridoma mAb: human V, CH1, upper hinge; mouse middle hinge, CH2, CH3
[1]
  Kd: 2.63 nM
  koff: 0.000816 s⁻¹
  kon: 310000 M⁻¹ s⁻¹
[2]
  Kd: 2.5 nM
  Response: 0.44
  koff: 0.000852 s⁻¹
  kon: 341000 M⁻¹ s⁻¹

B2: ABL-CD3-33 (antibody, V domains shown)
VH: EVQLVESGGGLVKPGGSLRLSCAASGFTFSSYSMNWVRQAPGKGLEWVSSISRSSSYIYYADSVKGRFTISRDNAKNSLYLQMNSLRAEDTAVYYCAREPPTLGMDYWGQGTLVTVSS
VL: NFMLTQPHSVSESPGKTVTISCTRSSGSIASNYVQWYQQRPGSSPTTVIYEDNQRPSGVPDRFSGSIDSSSNSASLTISGLKTEDEADYYCQSYYNSNRVFGGGTKLTVL
notes: as for B1
[3]
  Kd: 56.2 nM
  Response: 0.33
  koff: 0.0206 s⁻¹
  kon: 366000 M⁻¹ s⁻¹
[4]
  Kd: 60 nM
  koff: 0.0155 s⁻¹
  kon: 259000 M⁻¹ s⁻¹

B3: Control Humanized anti-CD3 (high affinity) scFv-Fc knob/TM, as bispecific with gemtuzumab (bispecific antibody)
scFv: EVQLVESGGGLVQPGGSLRLSCAASGFTFSTYAMNWVRQAPGKGLEWVGRIRSKYNNYATYYADSVKGRFTISRDDSKNTLYLQMNSLRAEDTAVYYCVRHGNFGDSYVSWFAYWGQGTLVTVSSGKPGSGKPGSGKPGSGKPGSQAVVTQEPSLTVSPGGTVTLTCGSSTGAVTTSNYANWVQQKPGKSPRGLIGGTNKRAPGVPARFSGSLLGGKAALTISGAQPEDEADYYCALWYSNHWVFGGGTKLTVLGGGGSDKTHTCPPCPAPEFEGGPSVFLFPPKPKDTLMISRTPEVTCVVVDVSHEDPEVKFNWYVDGVEVHNAKTKPREEQYNSTYRVVSVLTVLHQDWLNGKEYKCKVSNKALPASIEKTISKAKGQPREPQVYTLPPCREEMTKNQVSLWCLVKGFYPSDIAVEWESNGQPENNYKTTPPVLDSDGSFFLYSKLTVDKSRWQQGNVFSCSVMHEALHNHYTQKSLSLSPGK
heavy: EVQLVQSGAEVKKPGSSVKVSCKASGYTITDSNIHWVRQAPGQSLEWIGYIYPYNGGTDYNQKFKNRATLTVDNPTNTAYMELSSLRSEDTAFYYCVNGNPWLAYWGQGTLVTVSSASTKGPSVFPLAPSSKSTSGGTAALGCLVKDYFPEPVTVSWNSGALTSGVHTFPAVLQSSGLYSLSSVVTVPSSSLGTQTYICNVNHKPSNTKVDKRVEPKSCDKTHTCPPCPAPEFEGGPSVFLFPPKPKDTLMISRTPEVTCVVVDVSHEDPEVKFNWYVDGVEVHNAKTKPREEQYNSTYRVVSVLTVLHQDWLNGKEYKCKVSNKALPASIEKTISKAKGQPREPQVCTLPPSREEMTKNQVSLSCAVKGFYPSDIAVEWESNGQPENNYKTTPPVLDSDGSFFLVSKLTVDKSRWQQGNVFSCSVMHEALHNRFTQKSLSLSPGK
light: DIQLTQSPSTLSASVGDRVTITCRASESLDNYGIRFLTWFQQKPGKAPKLLMYAASNQGSGVPSRFSGSGSGTEFTLTISSLQPDDFATYYCQQTKEVPWSFGQGTKVEVKRTVAAPSVFIFPPSDEQLKSGTASVVCLLNNFYPREAKVQWKVDNALQSGNSQESVTEQDSKDSTYSLSSTLTLSKADYEKHKVYACEVTHQGLSSPVTKSFNRGEC
[5]
  RTCC EC50 (nM), KILR HL-60 T Cell Redirection cytotoxic assay with CD33-expressing target cells: 0.03 nM
Recombinant CD3 proteins [6]
  Kd: 20.1 nM
  Response: 0.73
  koff: 0.00652 s⁻¹
  kon: 325000 M⁻¹ s⁻¹

B4: CD3 × CD33-BspAb124 (bispecific antibody)
chain 1: not shown
chain 2: B3 heavy
chain 3: B3 light
Recombinant CD3 proteins [7]
  Kd: < 0.001 nM
  koff: < 1e-07 s⁻¹
  kon: 12500 M⁻¹ s⁻¹

B5: Control Humanized anti-CD3 (low affinity) scFv-Fc knob/TM, as bispecific with gemtuzumab (bispecific antibody)
scFv: B3 scFv with A113D
heavy: B3 heavy
light: B3 light
[5]
  RTCC EC50 (nM), KILR HL-60 T Cell Redirection cytotoxic assay with CD33-expressing target cells: 1.48 nM
Recombinant CD3 proteins [6]
  Kd: 50.3 nM
  Response: 0.3
  koff: 0.0121 s⁻¹
  kon: 241000 M⁻¹ s⁻¹

B6: CD3 × CD33-BspAb116 (bispecific antibody)
chain 1: NFMLTQPHSVSESPGKTVTISCTRSSGSIASNYVQWYQQRPGSSPTTVIYEDNQRPSGVPDRFSGSIDSSSNSASLTISGLKTEDEAYYYCQSFDSSNRVFGCGTKLTVLGGGGSGGGGSGGGGSGGGGSQVQLQESGPGLVKPSQTLSLTCTVSGGSISSGGYYWSWIRQHPGKCLEWIGYIYYSGSTYYNPSLKSRVTISVDTSKDQFSLKLSSVTAADTAVYYCARERKTSLPFDIWGQGTMVTVSSDKTHTCPPCPAPEFEGGPSVFLFPPKPKDTLMISRTPEVTCVVVDVSHEDPEVKFNWYVDGVEVHNAKTKPREEQYNSTYRVVSVLTVLHQDWLNGKEYKCKVSNKALPASIEKTISKAKGQPREPQVYTLPPCREEMTKNQVSLWCLVKGFYPSDIAVEWESNGQPENNYKTTPPVLDSDGSFFLYSKLTVDKSRWQQGNVFSCSVMHEALHNHYTQKSLSLSPGK
chain 2: B3 heavy
chain 3: B3 light
Recombinant CD3 proteins [8]
  Kd: 163 nM
  koff: 0.0168 s⁻¹
  kon: 103000 M⁻¹ s⁻¹

B7: CD3 × CD33-BspAb67 (bispecific antibody)
chain 1: not shown
chain 2: B3 heavy
chain 3: B3 light
Recombinant CD3 proteins [9]
  Kd: 5.57 nM
  koff: 0.00234 s⁻¹
  kon: 421000 M⁻¹ s⁻¹

B8: CD3 × CD33-BspAb126 (bispecific antibody)
chain 1: QVQLQESGPGLVKPSETLSLTCTVSGGSINSYYWSWIRQPAGKCLEWIGRIYTSGSTNYNPSLKSRVTMSVDTSKKQFSLKLSSVTAADTAVYYCARERISRLYFDYWGQGILVTVSSGGGGSGGGGSGGGGSGGGGSNFMLTQPHSVSESPGKTVTISCTRSSGSIASNYVQWYQQRPGSSPTTVIYEDNQRPSGVPDRFSGSIDSSSNSASLTISGLKTEDEADYYCQSYDRSNRVFGCGTKLTVLDKTHTCPPCPAPEFEGGPSVFLFPPKPKDTLMISRTPEVTCVVVDVSHEDPEVKFNWYVDGVEVHNAKTKPREEQYNSTYRVVSVLTVLHQDWLNGKEYKCKVSNKALPASIEKTISKAKGQPREPQVYTLPPCREEMTKNQVSLWCLVKGFYPSDIAVEWESNGQPENNYKTTPPVLDSDGSFFLYSKLTVDKSRWQQGNVFSCSVMHEALHNHYTQKSLSLSPGK
chain 2: B3 heavy
chain 3: B3 light
[10]
  % Positive: 98.3%
  gMFI: 56000 gMFI
[11]
  gMFI: 15700 gMFI
[12]
  gMFI: 26000 gMFI
[13]
  Jurkat WT/KO (Fold): 5.3 fold
Recombinant CD3 proteins [14]
  Kd: 78.4 nM
  koff: 0.0117 s⁻¹
  kon: 149000 M⁻¹ s⁻¹
[15]
  % Positive: 99.7%
  gMFI: 161000 gMFI
[16]
  Jurkat WT/KO (Fold): 8.8 fold
